From paper doi:10.1101/2024.11.20.624486

Target: GST-HktR (Pseudomonas syringae pv. actinidiae M228)
Assay: MST

RpoD-His6 (natural protein)
Kd: 1790 nM
